Residue numbers refer to the chain shown, from its start.
B1: 169 (protein)
chain: MTTRTRILTAFLSLLAANACAADAAPAAPHTVVLRAARMFDGASGKLVDHPQLTIVGNKIVRIAQGDKAEVPAGAEVVDLGDATLLPGFIDAHVHLSGQSSDNWYGDFFDNMMRFPAEQALYGAYYARITLEAGFTSVRDVGSTDWVALGLRNAIDAGKVPGPRMLVSNYPVGSTGGHADQDPIPPHKLPLAGPLQGVCNGPEECRAAVRYQIKYGANVIKFMPSGGVLSLSDPVDAPELSQDEMNAVIGESHAWGRKVAAHAHGDKAAKMAVAAGVDSIEHGSFIEDDTLRAMKAKNVYLVPTISAVAHVEEKIGTYPPVIAEKGRAAAAHLRQTFRHAVQIGVPIALGTDAGVGAHGSNAREFRYMVENGLTPAQALLAGTANAARLLGTFDRVGTLEAGKLADVVAVPGNPIADITVTERPLFVMKDGVVVRRDAVR
modifications: exemplary polypeptide
B2: 174 (protein)
chain: B1 chain with P171A, I184V
modifications: exemplary polypeptide
B3: 179 (protein)
chain: B1 chain with P171A, G354A
modifications: exemplary polypeptide
B4: 189 (protein)
chain: B1 chain with P171A, V308I, Y318F, G354L
modifications: exemplary polypeptide
B5: 190 (protein)
chain: B1 chain with P171A, V308I, Y318F, G354S
modifications: exemplary polypeptide
B6: 186 (protein)
chain: B1 chain with P171A, V308I, Y318F, L333I
modifications: exemplary polypeptide
B7: 183 (protein)
chain: B1 chain with P171A, V308I, Y318F, A330L
modifications: exemplary polypeptide
B8: 184 (protein)
chain: B1 chain with P171A, V308I, Y318F, A330M
modifications: exemplary polypeptide
B9: 177 (protein)
chain: B1 chain with P171A, I184V, V308I, G354A
modifications: exemplary polypeptide
B10: 187 (protein)
chain: B1 chain with P171A, V308I, Y318F, L333M
modifications: exemplary polypeptide
B11: 193 (protein)
chain: B1 chain with P171A, V308I, Y318F, G356A
modifications: exemplary polypeptide
B12: 175 (protein)
chain: B1 chain with P171A, I184V, V308A, Y318F, G354A
modifications: exemplary polypeptide
B13: 182 (protein)
chain: B1 chain with Y170R, P171A, V308I, Y318F
modifications: exemplary polypeptide
B14: 180 (protein)
chain: B1 chain with Y170E, P171A, V308I, Y318F
modifications: exemplary polypeptide
B15: 181 (protein)
chain: B1 chain with Y170F, P171A, V308I, Y318F
modifications: exemplary polypeptide
B16: 192 (protein)
chain: B1 chain with P171A, V308I, Y318F, G354V
modifications: exemplary polypeptide
B17: 194 (protein)
chain: B1 chain with P171A, V308I, Y318F, G356F
modifications: exemplary polypeptide
B18: 188 (protein)
chain: B1 chain with P171A, V308I, Y318F, L333V
modifications: exemplary polypeptide
B19: 173 (protein)
chain: B1 chain with P171A, I184V, V308A
modifications: exemplary polypeptide

Experiment: OTA detoxification activity assay (specific activity, fluorescence reduction ex/em 390/450 nm)
Assay type: biochemical
Conditions: pH 6.0; SEQ ID NO: 1 = 100%
Procedure, shortened: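 Recombinant enzyme preparation with 200 ng/mL OTA in 100 mM sodium phosphate, at pH 6.0 and pH 7.5, 37° C. Degradation followed as the fall in fluorescence at ex/em 390/450 nm. Specific activity taken from the initial linear slope; one unit degrades 1 μmol OTA per min at a starting OTA of […].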

Row | Molecule | Specific OTA detoxification activities in % compared to the enzyme of SEQ ID NO: 1, pH 6.0 [%]
1 | B1 | 50
2 | B2 | 45
3 | B3 | 49
4 | B4 | 82
5 | B5 | 122
6 | B6 | 142
7 | B7 | 58
8 | B8 | 103
9 | B9 | 94
10 | B10 | 51
11 | B11 | 81
12 | B12 | 121
13 | B13 | 98
14 | B14 | 91
15 | B15 | 138
16 | B16 | 69
17 | B17 | 78
18 | B18 | 84
19 | B19 | 27

Same assay, conditions: pH 7.5; SEQ ID NO: 1 = 100%

Row | Molecule | Specific OTA detoxification activities in % compared to the enzyme of SEQ ID NO: 1, pH 7.5 [%]
20 | B1 | 45
21 | B2 | 59
22 | B3 | 66
23 | B4 | 22
24 | B5 | 85
25 | B6 | 115
26 | B7 | 55
27 | B8 | 76
28 | B9 | 90
29 | B10 | 58
30 | B11 | 85
31 | B12 | 108
32 | B13 | 91
33 | B14 | 83
34 | B15 | 112
35 | B16 | 30
36 | B17 | 52
37 | B18 | 52
38 | B19 | 53

Experiment: Enzymatic activity comparison: activity remaining after 65° C. for 10 min at pH 6.0, relative to SEQ ID NO: 1
Assay type: physicochemical
Conditions: not given
Protocol: To compare the temperature behavior and thermostability of selected enzymes to one another, enzyme was incubated at 65° C. for 10 min at pH 6.0. The enzymatic activity remaining after incubation was compared to the remaining activity of the enzyme of SEQ ID NO: 1 after incubation, the latter being set to 100%, see Table 16.

Row | Molecule | Enzymatic activity remaining after incubation, compared to SEQ ID NO: 1 (set to 100%) [%]
39 | B1 | 30
40 | B2 | 54
41 | B3 | 17
42 | B4 | 19
43 | B5 | 15
44 | B6 | 42
45 | B7 | 75
46 | B8 | 46
47 | B9 | 20
48 | B10 | 36
49 | B11 | 42
50 | B12 | 13
51 | B13 | 38
52 | B14 | 28
53 | B15 | 47
54 | B16 | 41
55 | B17 | 45
56 | B18 | 45
57 | B19 | 53

Source: patent US20240352438A1, “MEANS AND METHODS FOR DETOXIFYING OCHRATOXIN A” (DSM Austria GmbH, priority 2021, published 2024)
